From patent US20250215071A1, “Novel Mcl-1 inhibitor and combination of Mcl-1 and a BH3 mimetic, such as a Bcl-2 inhibitor” (NETRIS PHARMA, priority 2022, published 2025)

Test system: H322 cells
Test: Cleaved active caspase-3 immunostaining of resected H322 tumors
Format: in vivo, NMRI nude mice
Experimental: FIG. 3. COMMD2 is required for UNC5B-induced cell death and tumor suppression. (A): Silencing COMMD2 inhibits UNC5B-induced DNA fragmentation. Stable Hela cells inducible for UNC5B were transfected with two distinct siRNA scramble (siCTRL) or targeting COMMD2 (siCOMMD2-1 and -2). Upon treatment for 18 hours with the indicated concentrations of doxycycline (Dox), DNA fragmentation was evaluated through FACS analysis (n=3, **** p<0.0001, Ordinary two-way ANOVA). Values are given as means±SEM. (B, C, D): Tumor growth inhibition driven by netrin-1 interference necessitates UNC5B and COMMD2. NMRI nude mice were engrafted with stable H322 cells, knock-down for luciferase (sgLUC, used as a non-targeting control), UNC5B (sgUNC5B) or COMMD2 (sgCOMMD2), generated with CRISPR-Cas-9-KRAB strategy. Tumors obtained from nude mice engrafted with stable H322 cells were lysed and gene expression was evaluated by quantitative RT-PCR (n=2-3, *p<0.05, Kruskal-Wallis test with Dunn's multiple comparisons test) (B). After tumor volume reached 50 mm^3, mice were intravenously treated three time per week with anti-netrin-1 (NP137) or control (Iso-mAb) antibodies and tumor growth was evaluated (n=10 mice/group, ^nsp>0.05, *p<0.05, Mann-Whitney test, two-tailed) (C). A histogram illustrating tumor volumes at 35 days after first treatment is indicated in (D) (n=10 mice/group, ^nsp>0.05, *p<0.05, *** p<0.001, Kruskal-Wallis test with uncorrected Dunn's test). (E). Silencing of UNC5B and COMMD2 restrains in vivo NP137-induced apoptosis. After sacrificing the mice, tumors were resected and apoptosis was quantified by immunostaining of active cleaved caspase-3. […]
5-week-old female athymic NMRI nude mice were obtained from Janvier Labs (Saint Bertevin, France). […] Tumor size was measured three times per week with a caliper. Tumor volume was calculated according to the formula v=0.5× (l×w2), where v is volume, l is length, and w is width. […]

B1: NP137: humanized anti-netrin-1 monoclonal antibody, VH SEQ ID NO: 22, VL SEQ ID NO: 16, human IgG1 (antibody, V domains shown)
VH: QVQLQQSGPGLVKPSQTLSLTCAISGYTFTSYNMHWVRQATGQGLEWMGAIYPGNGDTSYNQKFKGRLTISKDTSKNQVVLTMTNMDPVDTATYYCARGGTGFAYWGQG
VL: DIQMTQSPSSLSASVGDRVTITCKASQSVSNDVAWYQQKPGQAPRLLIYYASNRYTGIPPRFSGSGYGTDFTLTINNIESEDAAYYFCQQDYSSPWTFGQG
modifications: human IgG1 constant region; humanized variant; MISC_FEATURE - CDR according to IGMT
Which results are given for B1?
percentage of caspase-3 positive cells (H322 tumors knocked-out for COMMD2): failed to detect a similar increase; percentage of caspase-3 positive cells (H322 tumors knocked-out for UNC5B): failed to detect a similar increase; apoptosis, cleaved active caspase-3 positive cells (control H322 tumors (sgLUC)): associated with apoptosis induction
